This note sets out measurements from patent US20050260166 (Phytovation B.V., published 2005).

In the series the target is NS1 (Influenza A virus (A/PR/8/34), UniProt P03496 P03496:1-230). The series can be described thus: EMSA; 2 pM siRNA with 0-200 pM protein as printed; on ice 20 min; native 5% PAGE. Particulars: tags: N-terminal His tag (pQE31, Qiagen); label: 5'-33P; 19-bp duplex with 3' dTdT overhangs. A general note: A gel shift assay detects complexes by their altered migration in electrophoresis.
Chain of NS1 (P03496 whole entry, one chain of several): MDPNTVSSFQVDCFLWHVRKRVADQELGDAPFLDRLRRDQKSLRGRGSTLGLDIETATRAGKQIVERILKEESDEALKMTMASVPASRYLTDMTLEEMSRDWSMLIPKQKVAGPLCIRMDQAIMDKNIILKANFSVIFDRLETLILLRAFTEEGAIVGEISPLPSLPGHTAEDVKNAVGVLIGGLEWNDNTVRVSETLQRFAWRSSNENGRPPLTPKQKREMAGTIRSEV

B1: GL3 luciferase siRNA (dsRNA)
RNA 1: CUUACGCUGAGUACUUCGATT
RNA 2: UCGAAGUACUCAGCGUAAGTT
modifications: 3'-terminal TT of each strand are deoxynucleotides
Regarding B1, the binding result was “binds”.
